Patent US6303317A, “Peptide probes and methods for making the same” (The Regents of the University of California, priority 1998, dated 2001)
Where no end group is shown, it is not given here.

T1: APC-55, a peptide corresponding to amino acids 2-55 of human APC (human)
T1 peptide: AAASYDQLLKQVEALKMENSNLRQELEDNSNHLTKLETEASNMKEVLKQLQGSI

B1: anti-APCp1 polypeptide probe (designed binder)
peptide: MAAKGDQLKKEVEALEYENSNLRKKLEDHKKKLTKLKTEISNAKKMLKQLYASI

What was measured:
APC protein = assay: Precipitation of APC from human colon cancer cell line lysates with biotinylated probe and streptavidin particles; assay type: binding; settings: Western blot with APC antibody
Method: Precipitation experiments were carried out in order to determine whether the anti-APCp1 polypeptide probe was capable of detecting the low in vivo levels of APC which are typically present in normal and tumor cells. FIG. 7 is a schematic representation of the strategy used. Briefly, cell lines which produce a normal (i.e., full length human APC) and mutant (i.e., truncated human APC) were lysed, and the lysate combined with either biotinylated […] or biotinylated anti-APC monoclonal antibody. Molecules bound to the biotinylated probes were collected by binding to streptavidin, and the bound molecules released from the beads followed by SDS-PAGE, blotting of the gels, and detection with a biotinylated APC antibody. […] was detected on X-ray film. These steps are elaborated in more detail as follows.
Cells were harvested at 90-100% confluency. Cells were washed twice with ice-cold Dulbecco's phosphate buffered saline (Gibco BRL) containing magnesium chloride and calcium chloride, scraped into 15 mL ice cold D-PBS and pelleted in a Beckman J-6 centrifuge for 5 minutes at 4° C. The cell pellet was resuspended in 1 mL ice-cold phosphate buffer, pH 8, containing 0.2% NP-40, 400 μg/mL of Pefabloc SC (Boehringer Mannheim) and 10 μg/mL each of leupeptin, pepstatin, and aprotinin. […]

[1] = target: T1, APC-55, a peptide corresponding to …; assay: thermal denaturation by CD at 222 nm, equimolar mixture, 75.0 µM
Method: (§1) CD spectra (180–300 nm) for the APC-55 and anti-APCp1 peptides alone and in combination were recorded in a 1 mm quartz cuvette at 5° C. using an Aviv 62DS circular dichroism spectrophotometer. The concentrations of peptide stocks were determined optically by the method of Gill and vonHippel, *Anal. Biochem* 182:319–326 (1989). Peptide stocks were diluted in 10 mM KPO_4, 100 mM KF, pH 7.0. Thermal denaturations were carried out in steps of 1–3° C. with 2 minutes for equilibration and one minute for data averaging. Thermal transitions were >95% reversible. The results in FIGS. 3 and 4 obtained with the APC-55 alone are shown by open circles (○), with the anti-APCp1 alone by squares (□), and with an equimolar mixture of APC-55 and anti-APCp1 with closed circles (●).

[2] = target: T1, APC-55, a peptide corresponding to …; assay: thermal stability at 20 µM peptide in PBS (pH 7.0), mixture
[3] = thermal denaturation by CD at 222 nm, peptide alone (homo-oligomer), 75.0 µM
[4] = thermal denaturation by CD at 222 nm, peptide alone (homo-oligomer), 20.0 µM
[5] = target: T1, APC-55, a peptide corresponding to …; assay: thermal denaturation by CD at 222 nm, equimolar mixture, 8.0 µM
Method: as §1

[6] = thermal stability at 20 µM peptide in PBS (pH 7.0), peptide alone
[7] = target: T1, APC-55, a peptide corresponding to …; assay: thermal denaturation by CD at 222 nm, equimolar mixture, 20.0 µM
Method: as §1

[8] = target: T1, APC-55, a peptide corresponding to …; assay: thermal denaturation followed by circular dichroism at 222 nm
Method: as §1

[9] = target: T1, APC-55, a peptide corresponding to …; assay: native acrylamide gel electrophoresis, judged by the sensitivity of detection
Method: Native acrylamide gel electrophoresis was used as a direct test of heterodimer specificity. Samples of the individual peptides and an equimolar mixture of the peptides were prepared at 0.6 mM and diluted two-fold in 0.2% (w/v) methyl green, 20% glycerol, 750 mM beta-alanine acetate pH 6.0. Gels contained a separating gel of 7.5% acrylamide in 375 mM beta-alanine acetate, pH 4.0. Samples were run for 2.5 hours at 100 volts, and the gels were fixed with 2% glutaraldehyde and stained for at least 1 hour in 0.2% Coomassie Brilliant Blue in 50% methanol, 10% acetic acid (v/v). Destaining was carried out overnight in the same solvent lacking the dye.
The data presented herein was surprising in view of the prior art reports of the sufficiency of e':g interactions for dimerization specificity of coiled coil proteins [O'Shea et al. (1992), supra; O'Shea et al. (1993) supra; Krylov et al (1994) EMBO J. 13:2849–2861].

[10] = thermal denaturation by CD at 222 nm, peptide alone (homo-oligomer), 8.0 µM

| preference for heterodimer over homodimers (fold) [9] [fold] | Molecule | binding to / precipitation of wild-type and mutant APC at endogenous cell concentrations (APC protein) | Apparent Tm [1] [° C.] | Tm [2] [° C.] | Apparent Tm [3] [° C.] | Apparent Tm [4] [° C.] | Apparent Tm [5] [° C.] | Tm [6] [° C.] | Apparent Tm [7] [° C.] | increase in the thermal melting transition [8] [° C.] | Apparent Tm [10] [° C.] |
| --- | --- | --- | --- | --- | --- | --- | --- | --- | --- | --- | --- |
| – | biotinylated-anti-APCp1: N-terminally biotinylated anti-APCp1 with Met, an additional Leu8Val mutation and Glu-Asp-Glu at the C-terminus (MAAKGDQVKKEVEALEYENSNLRKKLEDHKKKLTKLKTEISNAKKMLKQLYASIEDE; not fully specified (N-terminus); also: biotin attached via a long spacer arm) | precipitated truncation mutants and full-length APC at endogenous cell concentrations | – | – | – | – | – | – | – | – | – |
| ≥ 100 | B1 | – | 64.7 | 54.3 | 59.6 | 52.3 | 50.6 | 52.3 | 54.3 | > 10 | 45 |
